# The nanobody polyreactivity screen of Harvey et al. (2022)
# Experiment: yeast display, Sf9 membrane polyspecificity reagent, FACS + sequencing; frameworks hold sequencing errors
# In short: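 Galactose induction of a Saccharomyces cerevisiae BJ5465 synthetic nanobody display library ran 36–48 hours. The cells were then stained for 1 hour at 4 °C with 10% biotinylated, detergent-solubilized Sf9 membrane reagent, pulled down on streptavidin microbeads and FACS-sorted into low and high (top ~1%) gates on expression and reagent-binding fluorescence. Labels for polyreactivity follow the gate of origin.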
row,Sequence,polyreactivity (PSR sort gate)
1,QVQLVESGGGLVQAGGSLRLSCAASGRIFTNYAMGWYRQAPGKERELVAAINWDGGSTYYADSVKGRFTISRDNAKNTVYLQMNSLKPEDTAVYYCAAQGGLSEFDYWGQGTQVTVSS,low polyreactivity
2,QVQLVESGGGLVQAGGSLRLSCAASGRIFTQNAMGWYRQAPGKERELVAAINYSGGRTYYADSVKGRFTISRDNAKNTVYLQMNSLKPEDTAVYYCAAEWYTRFYISYGYWGQGTQVTVSS,high polyreactivity
3,QVQLVESGGGLVQAGGSLRLSCAASGRIFTRYAMGWYRHAPGKERELVAAITASGGRTYYADSVKGRFTISRDNAKNTVYLQMNSLKPEDTAVYYCAATYHRYYETQDSYDYWGQGTQVTVSS,high polyreactivity
4,QVQLVESGGGLVQAGGSLRLSCAASGRIFTRYAMGWYRQAPGKERELVAAIDRGGSTYYADSVKGRFTISRDNAKNTVYLQMNSLKPEDTAVYYCAARIKAWGLEFYYWGQGTQVTVSS,high polyreactivity
5,QVQLVESGGGLVQAGGSLRLSCAASGRIFTRYAMGWYRQAPGKERELVAAISRGGARTYYADSVKGRFTISRDNAKNTVYLQMNSLKPEDTAVYYCARQRVKTDRISGYDYWGQGTQVTVSS,high polyreactivity
6,QVQLVESGGGLVQAGGSLRLSCAASGRIFTRYAMGWYRQAPGKERELVAVITRSGGSTYYADSVKGRFTISRDNAKNTVYLQMTSLKPEDTAVYYCAAKYYGEMYYWGQGTQVTVSS,low polyreactivity
7,QVQLVESGGGLVQAGGSLRLSCAASGRIFTRYVMGWYRPAPGKERELVAGINSGGRTNYADSVKGRFTISRDNAKNTVYLQMNSLKQVDTAVYYCAAGKGRPVGGRAYYYWGHGTQVTVSS,high polyreactivity
8,QVQLVESGGGLVQAGGSLRLSCAASGRIFTSNAMGWYRQAPGKERELVASITSSSSTNYADSVKGRFTLSRDNAKNTVYLQMNSLKPEDTAVYYCAAERVWPYGHDYWGQGTQVTVSS,low polyreactivity
9,QVQLVESGGGLVQAGGSLRLSCAASGRIFTSYAMGWYRQAPGKERELVASITSGGRTDYADSVKGRFTISRDNAKNTVYVQMNSLKPEDTAVYYCNVGTRRALYYPYRPGRYDYWGQGTQVTVSS,low polyreactivity
10,QVQLVESGGGLVQAGGSLRLSCAASGRIFTSYVMGWYRQAPGKERELVAAITRTGGSTYYADSVKGRFTISRDNAKNTVYLQMNSLKPEDTAVYYCNALTRRQKGGEGGGYWGQGTQVTVSS,high polyreactivity
11,QVQLVESGGGLVQAGGSLRLSCAASGRIFTTNVMGWYRQAPGKERELVAAISWSGGNTYYADSVKGRFTISRDNAKNTVYLQMNSLKPEDTAVYYCNAVGTIREGDSWGQGTQVTVSS,low polyreactivity
12,QVQLVESGGGLVQAGGSLRLSCAASGRIFTYNAMGWYRQAPGKERELVASINLDGDSTYYADSVKGRFTISRDNAKKTVYLQMNSLKTEETAVYYCAVPGATSYFAYDSWGQGTQVTVSS,low polyreactivity
13,QVQLVESGGGLVQAGGSLRLSCAASGRIFTYNTMGWYRQAPGKERELVAAIRTGGSTNYADSVKGRFTISRDNAKNTVYLQMNSLKPEDTAVYYCNTVRHSSSVYWYDYWGQGTQVTVSS,low polyreactivity
14,QVQLVESGGGLVQAGGSLRLSCAASGRIFTYNTMGWYRQAPGKERELVAAISGSGGITYYADSVKGRFTISRDNAKNTVYLQMNSLKPEDTAVYYCNTVPLYVSRYPYDYWGQGTQVTVSS,low polyreactivity
15,QVQLVESGGGLVQAGGSLRLSCAASGRIFTYNTMGWYRQAPGKERELVAAITSGGRTYYADSVKGRFTISRDNAKNTVYLQMNSLKPEDTAVYYCAAGRSRFVTRYDYWGQGTQVTVSS,high polyreactivity
16,QVQLVESGGGLVQAGGSLRLSCAASGRIFTYNTMGWYRQSPGKEREFVASITYSGSSTYYADSVKGRFTISRDNAKNTVYLQMNSLKPEDTAVYYCATRYGYSDGDYWGHGTQVTVSS,low polyreactivity
17,QVQLVESGGGLVQAGGSLRLSCAASGRIFTYYAMGWFRQAPGKERELVAAISFRGSSTYYADSVKGRVTLSRDNAKNTVYLQRNSLKPEDTAVYYCAAERIARPTFDYWGQGTQVTVSS,low polyreactivity
18,QVQLVESGGGLVQAGGSLRLSCAASGRIFTYYGMGWYRQAPGKERELVAAISWSGGSTYYADSVKGRFTISRDNAKNTVYLQMNSLKPEDTAVYYCNAASRYGGDYWGQGTQVTVSS,high polyreactivity
19,QVQLVESGGGLVQAGGSLRLSCAASGRIFTYYTMGGYRQAPGKERELVATINSSGGSTYYADSVKGRFTISRDNAKNTVYLQMNRLKPEDTAVYYCNDAYKSQVRYRRYNYWGQGTQVTVSS,high polyreactivity
20,QVQLVESGGGLVQAGGSLRLSCAASGRIFVDNAMGWYRQAPGKERELVAAITRGGSTYADSVKGRFTISRDNAQNTVYLQMISLKPEDTAVYYCAADLWSVPFTVYTFGIFYYWGQGTQVTVSS,low polyreactivity
21,QVQLVESGGGLVQAGGSLRLSCAASGRIFVDYAMGWYRQAPGKERELVAAITRSGDRTYYADSVKGRFTISRDNAKNTVYLQMNSLKPEDTAVYYCATDYPGYDWGQGTQVTVSS,low polyreactivity
22,QVQLVESGGGLVQAGGSLRLSCAASGRIFVEYAMGWYRQAPGKERELVAAINSGGSTNYADSVKGRFTISRDNAKNTVYLQMNSLKPEDTAVYYCNKDTLVYGYVQDYEYWGQGTQVTVSS,low polyreactivity

row,Sequence,polyreactivity (PSR sort gate)
1,QVQLVESGGGLVQAGGSLRLSCAASGRIFVGNTMGWYRQAPGKDRELVAAISWRGRTSYADSVKGRFTISRDNAKNTVYLQMNSLKPEDTAVYYCNAEHAGASRYYYIANWMDYWGQGTQVTVSS,low polyreactivity
2,QVQLVESGGGLVQAGGSLRLSCAASGRIFVGYAMGLYRQAPGKEREFVATITFSGSSTYYADSVKGRFTISRDNAKNTVYIQMNSLKPEDTAVYYCAVTLEDYTYVYWGQGTQVTVSS,low polyreactivity
3,QVQLVESGGGLVQAGGSLRLSCAASGRIFVGYAMGWYRQAPGKERELVAAINRSGSSKYYADSVKGRFTISRDNAKNTVYLQMNSLKTEDTAVYYCNARSGNRYGPRYDYWGQGTQVTVSS,high polyreactivity
4,QVQLVESGGGLVQAGGSLRLSCAASGRIFVGYAMGWYRQAPGKERELVAAINRSGSSTYYADSVKGRFTISRDNAKNTVYLQMNSLKPEDSAVYYCNARAPSYYRYRASSAYDYWGQGTQVTVSS,high polyreactivity
5,QVQLVESGGGLVQAGGSLRLSCAASGRIFVGYAMGWYRQAPGKERELVAAISSRGGSTYYADSVKGRFTISRDNAKNTVYLQMNSLKPEDTAVYYCAKVRTYRYYDGGDYWGQGTQVTVSS,high polyreactivity
6,QVQLVESGGGLVQAGGSLRLSCAASGRIFVHNSMGWYRQAPGKERELVAAISSCGRTYYADSVKGRFTISRDNAKNTVYFQMNSLKPEDTAVYYCNAGRTNRAGRRWPMDYWGQGTHVTVSS,high polyreactivity
7,QVQLVESGGGLVQAGGSLRLSCAASGRIFVHYAMGWYRQAPGKERELVAAITSGSSTNYADSVKGRFTISRDNAKNTVYLQMNSLKPEDTAVYYCAADYSVHLVRDRWFDYWGQGTQVTVSS,low polyreactivity
8,QVQLVESGGGLVQAGGSLRLSCAASGRIFVINAMGWYRQAPGKERELVADITWSGGSTYADSVKGRFTISRDNAKNTVYLLMNSLNPADTAVSYCAAVYLRVDRYLQVYRYDYWGQGTQVTVSS,high polyreactivity
9,QVQLVESGGGLVQAGGSLRLSCAASGRIFVKNAMGWYRQAPGKERELVAAISSSSGSTYYADSVKGRFTISRDNAKNTVYLQMNSLKPEDTAVYYCATVRWYYSRPRPTTAYGYWGQGTQVNVSS,high polyreactivity
10,QVQLVESGGGLVQAGGSLRLSCAASGRIFVKYAMGWYRQAPGKERELVAGISRSVGSTYYADSVKGRFTISRDNAKNTVYLQMNSLKPEDTAVYYCATRQKRVGYYYWGQGTQVTVSS,high polyreactivity
11,QVQLVESGGGLVQAGGSLRLSCAASGRIFVNNAKGWYRPAPGKERELVAAISRGASTYYADSVKGRFTISRDNAKNTVYLQLNSLKAEDTAVYYGNARTDAYGASEMGYWGQGTQVTVSS,high polyreactivity
12,QVQLVESGGGLVQAGGSLRLSCAASGRIFVNNAMGWYRQAPGKERELVAAITGRGTRTYYADSVKGRFTISRDNAKNTVYLQMNSLKPEDTADYYCNAVSTAVIGYEYDYWGQGTQVTVSS,high polyreactivity
13,QVQLVESGGGLVQAGGSLRLSCAASGRIFVPYVMGWYRQAPGKDRELVASISDSDTSTYYADSVKGRFTISRDNAKNNVYLQMNSMKPEDTAVYYCNVDYWGQGTQVTVSS,low polyreactivity
14,QVQLVESGGGLVQAGGSLRLSCAASGRIFVQNAMGWYRQAPGKERELVAAINWSVGSTYYADSVKGRFTISRDNAKNTVYLQMNSLKPEDTAVYYCAAGNLYYAEYDYWGQGTQVTVSS,low polyreactivity
15,QVQLVESGGGLVQAGGSLRLSCAASGRIFVRYAMGWYRQAPGKEREWVAVSTTGGARTRDADSVKGRFTISRDNAKNSVYLQMNSLKPEDTGVYYCAAQTYSQRWYDYWGQGTQVTVSS,high polyreactivity
16,QVQLVESGGGLVQAGGSLRLSCAASGRIFVSHAMGWYRQAPGKERALVAGITWTSGSTYYADSVKGRFTISRDNAKNTVYLQMKSLKPEDTAVYYCAAEYWYGNAFDYWGLGTQVTVSS,low polyreactivity
17,QVQLVESGGGLVQAGGSLRLSCAASGRIFVSNAMGWYRQAPGKERELVAAISKSGGRTYYADSVKGRFTISRDNAKNTVYLQMNSLKPEDTAVYYCNAVISLPGNKYDYWGQGTQVTVSS,high polyreactivity
18,QVQLVESGGGLVQAGGSLRLSCAASGRIFVSYAMGWYRQAPGKERELVAAISNSGSRTYYADSVKGRFTISRDNAKNTVYLQMNSLKPEDTAVYYCAAGQGAGVDYWGQGTQVTVSS,high polyreactivity
19,QVQLVESGGGLVQAGGSLRLSCAASGRIFVSYTMGWYRQAPGKERELVAAIRGTGSTYYADSVKGRFTISRDNAKNTVYLQMNSLKPEDTAVYYCNADYLRWDIWYWHGYDYWGQGTQVTVSS,high polyreactivity
20,QVQLVESGGGLVQAGGSLRLSCAASGRIFVSYVMGWYRPAPGKEREFVAAIRRSGSSTYYADSVKGRFTISRDNAKNTVYLQINRLKPEDTAVYYCAAYQRSRTLRRYDYWGQGTQVTVSS,high polyreactivity
21,QVQLVESGGGLVQAGGSLRLSCAASGRIFVTNAMGWYRQAPGKERELVAAISYRGGRTYYADSVKGRFTISRDNAKNTVYLQMNSLKPEDTAVYYCNAVTRWPFDYWGQGTQVTVSS,high polyreactivity
